Experimental data published in PMC8253768, “Structural plasticity of mumps virus nucleocapsids with cryo-EM structures” (Communications Biology, 2021).
Values joined by “and” are separate entries in the source; they are usually repeats but may differ in a detail not shown here. Equal entries are not always repeated.

B1: Mumps virus (MuV) nucleoprotein, full length (1–549), freshly purified (natural protein)
chain: MSSVLKAFERFTIEQELQDRGEEGSIPPETLKSAVKVFVINTPNPTTRYQMLNFCLRIICSQNARASHRVGALITLFSLPSAGMQNHIRLADRSPEAQIERCEIDGFEPGTYRLIPNARANLTANEIAAYALLADDLPPTINNGTPYVHADVEGQPCDEIEQFLDRCYSVLIQAWVMVCKCMTAYDQPAGSADRRFAKYQQQGRLEARYMLQPEAQRLIQTAIRKSLVVRQYLTFELQLARRQGLLSNRYYAMVGDIGKYIENSGLTAFFLTLKYALGTKWSPLSLAAFTGELTKLRSLMMLYRGLGEQARYLALLEAPQIMDFAPGGYPLIFSYAMGVGTVLDVQMRNYTYARPFLNGYYFQIGVETARRQQGTVDNRVADDLGLTPEQRTEVTQLVDRLARGRGAGIPGGPVNPFVPPVQQQQPAAVYEDIPALEESDDDGDEDGGAGFQNGVQLPAVRQGGQTDFRAQPLQDPIQAQLFMPLYPQVSNMPNNQNHQINRIGGLEHQDLLRYNENGDSQQDARGEHVNTFPNNPNQNAQLQVGDWDE
notes: Mumps virus nucleoprotein (N), full-length gene 1–549, synthesized by GenScript, cloned into pET28b; Purified with enwrapped endogenous E. coli RNA; Only residues 1–373 are resolved in the maps; also called NWT; MuV nucleoproteins; source: E. coli, purified (nickel-nitrilotriacetic acid resin, Superose 6 gel filtration), freshly made

Key:
[1] = target: Aged MuV nucleoprotein (NWT kept at 4 °C for 4 weeks, digested by residual impurities) (mumps virus) (UniProt Q77IS8); test: cryo-EM structure; filaments of NWT after 4 weeks of digestion at 4 °C; helical reconstruction of three classes (NC_(helix-dense), NC_(helix-hyper), N_(ring-stacked) with C13 symmetry); with enwrapped RNA
[2] = target: the molecule itself; test: cryo-EM structure; single particle analysis of freshly purified NWT rings with enwrapped E. coli RNA; ~1 mg/mL; 20 mM Tris-HCl pH 7.4, 150 mM NaCl; micrographs at 0°, 20° and 40° tilt; 2D classification and refinement with C13 or C14 symmetry

| Molecule | stoichiometry N [1] [protomers] | stoichiometry N [2] |
| --- | --- | --- |
| Aged MuV nucleoprotein (NWT kept at 4 °C for 4 weeks, digested by residual impurities) (from UniProt Q77IS8 1-549) (domain or fragment) | 13 |  |
| B1 |  | 13 protomers and 14 protomers |
